The text below walks through data of US20230279138A1 (CHIA TAI TIANQING PHARMACEUTICAL GROUP, published 2023).

Changes are numbered by the printed parent chain. In names and notes the source's numbering stands.

B1: W3278-U3T2.F18R-1.uIgG4.SP (bispecific antibody)
heavy 1: EVQLVESGGGLVQPGRSLRLSCAASGFTFNDYAMHWVRQAPGKGLEWVSTISWNSGSIGYADSVKGRFTISRDNAKKSLYLQMNSLRAEDTALYYCAKDIQYGNYYYGMDVWGQGTTVTVSSASTKGPSVFPLAPCSRSTSESTAALGCLVKDYFPEPVTVSWNSGALTSGVHTFPAVLQSSGLYSLSSVVTVPSSSLGTKTYTCNVDHKPSNTKVDKRVGGGGSGGGGSQVQLVQSGAEVKKPGSSVKVSCKASGYSFTTYYIHWVRQAPGQGLEWMGWIFPGNDNIKYSEKFKGRVTITADKSTSTAYMELSSLRSEDTAVYYCAIDSVSIYYFDYWGQGTLVTVLEDLKNVFPPEVAVFEPSEAEISHTQKATLVCLATGFYPDHVELSWWVNGKEVHSGVCTDPQPLKEQPALQDSRYALSSRLRVSATFWQNPRNHFRCQVQFYGLSENDEWTQDRAKPVTQIVSAEAWGRYGPPCPPCPAPEFLGGPSVFLFPPKPKDTLMISRTPEVTCVVVDVSQEDPEVQFNWYVDGVEVHNAKTKPREEQFNSTYRVVSVLTVLHQDWLNGKEYKCKVSNKGLPSSIEKTISKAKGQPREPQVYTLPPCQEEMTKNQVSLWCLVKGFYPSDIAVEWESNGQPENNYKTTPPVLDSDGSFFLYSRLTVDKSRWQEGNVFSCSVMHEALHNHYTQKSLSLSLG
heavy 2: EVQLVESGGGLVQPGRSLRLSCAASGFTFNDYAMHWVRQAPGKGLEWVSTISWNSGSIGYADSVKGRFTISRDNAKKSLYLQMNSLRAEDTALYYCAKDIQYGNYYYGMDVWGQGTTVTVSSASTKGPSVFPLAPCSRSTSESTAALGCLVKDYFPEPVTVSWNSGALTSGVHTFPAVLQSSGLYSLSSVVTVPSSSLGTKTYTCNVDHKPSNTKVDKRVESKYGPPCPPCPAPEFLGGPSVFLFPPKPKDTLMISRTPEVTCVVVDVSQEDPEVQFNWYVDGVEVHNAKTKPREEQFNSTYRVVSVLTVLHQDWLNGKEYKCKVSNKGLPSSIEKTISKAKGQPREPQVCTLPPSQEEMTKNQVSLSCAVKGFYPSDIAVEWESNGQPENNYKTTPPVLDSDGSFFLVSRLTVDKSRWQEGNVFSCSVMHEALHNHYTQKSLSLSLG
light 1: not shown
light 2: DIVMTQSPDSLAVSLGERATINCKSSQSLLNSRTRKNYLAWYQQKPGQPPKLLIYWASTRKSGVPDRFSGSGSGTDFTLTISSLQAEDVAVYYCTQSFILRTFGGGTKVEIKPDIQNPDPAVYQLRDSKSSDKSVCLFTDFDSQTQVSQSKDSDVYITDKCVLDMRSMDFKSNSAVAWSQKSDFACANAFQNSIIPEDTFFPSPESS
notes: Human IgG4 S228P, knobs-into-holes; also called W3278 BsAb; WBP3278 BsAb
B2: W3278-T3U2.F17R-1.uIgG4.SP (bispecific antibody)
heavy 1: QVQLVQSGAEVKKPGSSVKVSCKASGFAFTDYYIHWVRQAPGQGLEWMGWISPGNVNTKYNENFKGRVTITADKSTSTAYMELSSLRSEDTAVYYCARDGYSLYYFDYWGQGTLVTVLEDLKNVFPPEVAVFEPSEAEISHTQKATLVCLATGFYPDHVELSWWVNGKEVHSGVCTDPQPLKEQPALQDSRYALSSRLRVSATFWQNPRNHFRCQVQFYGLSENDEWTQDRAKPVTQIVSAEAWGRGGGGSGGGGSQVQLQQPGAELVKPGASVKMSCKASGYTFTSYNMHWVKQTPGRGLEWIGAIYPGNGDTSYNQKFKGKATLTADKSSSTAYMQLSSLTSEDSAVYYCARSTYYGGDWYFNVWGAGTTVTVSAASTKGPSVFPLAPCSRSTSESTAALGCLVKDYFPEPVTVSWNSGALTSGVHTFPAVLQSSGLYSLSSVVTVPSSSLGTKTYTCNVDHKPSNTKVDKRVESKYGPPCPPCPAPEFLGGPSVFLFPPKPKDTLMISRTPEVTCVVVDVSQEDPEVQFNWYVDGVEVHNAKTKPREEQFNSTYRVVSVLTVLHQDWLNGKEYKCKVSNKGLPSSIEKTISKAKGQPREPQVYTLPPCQEEMTKNQVSLWCLVKGFYPSDIAVEWESNGQPENNYKTTPPVLDSDGSFFLYSRLTVDKSRWQEGNVFSCSVMHEALHNHYTQKSLSLSLG
heavy 2: QVQLQQPGAELVKPGASVKMSCKASGYTFTSYNMHWVKQTPGRGLEWIGAIYPGNGDTSYNQKFKGKATLTADKSSSTAYMQLSSLTSEDSAVYYCARSTYYGGDWYFNVWGAGTTVTVSAASTKGPSVFPLAPCSRSTSESTAALGCLVKDYFPEPVTVSWNSGALTSGVHTFPAVLQSSGLYSLSSVVTVPSSSLGTKTYTCNVDHKPSNTKVDKRVESKYGPPCPPCPAPEFLGGPSVFLFPPKPKDTLMISRTPEVTCVVVDVSQEDPEVQFNWYVDGVEVHNAKTKPREEQFNSTYRVVSVLTVLHQDWLNGKEYKCKVSNKGLPSSIEKTISKAKGQPREPQVCTLPPSQEEMTKNQVSLSCAVKGFYPSDIAVEWESNGQPENNYKTTPPVLDSDGSFFLVSRLTVDKSRWQEGNVFSCSVMHEALHNHYTQKSLSLSLG
light 1: B1 light 2 with K61Q, F98H, I99T
light 2: QIVLSQSPAILSASPGEKVTMTCRASSSVSYIHWFQQKPGSSPKPWIYATSNLASGVPVRFSGSGSGTSYSLTISRVEAEDAATYYCQQWTSNPPTFGGGTKLEIKRTVAAPSVFIFPPSDEQLKSGTASVVCLLNNFYPREAKVQWKVDNALQSGNSQESVTEQDSKDSTYSLSSTLTLSKADYEKHKVYACEVTHQGLSSPVTKSFNRGEC
notes: also called W3278 BsAb; WBP3278 BsAb
B3: Anti-CD3 Fab (T2) (Fab, V domains shown)
VH: QVQLVQSGAEVKKPGSSVKVSCKASGYSFTTYYIHWVRQAPGQGLEWMGWIFPGNDNIKYSEKFKGRVTITADKSTSTAYMELSSLRSEDTAVYYCAIDSVSIYYFDYWGQGTLVTVSS
VL: DIVMTQSPDSLAVSLGERATINCKSSQSLLNSRTRKNYLAWYQQKPGQPPKLLIYWASTRKSGVPDRFSGSGSGTDFTLTISSLQAEDVAVYYCTQSFILRTFGGGTKVEIK
notes: Parental antibody tested as a Fab; The variable domains are tied to it through the clone naming: T2 is the anti-CD3 portion of W3278-T2U3 and W3278-U3T2; also called parental anti-CD3 antibody T2
B4: Anti-CD3 Fab (T3) (Fab, V domains shown)
VH: QVQLVQSGAEVKKPGSSVKVSCKASGFAFTDYYIHWVRQAPGQGLEWMGWISPGNVNTKYNENFKGRVTITADKSTSTAYMELSSLRSEDTAVYYCARDGYSLYYFDYWGQGTLVTVSS
VL: B3 VL with K61Q, F98H, I99T
notes: Parental antibody tested as a Fab; The variable domains are tied to it through the clone naming: T3 is the anti-CD3 portion of W3278-T3U2 and W3278-U2T3; also called parental anti-CD3 antibody T3
B5: W3278-T2U3.E17R-1.uIgG4.SP (bispecific antibody)
heavy 1: QVQLVQSGAEVKKPGSSVKVSCKASGYSFTTYYIHWVRQAPGQGLEWMGWIFPGNDNIKYSEKFKGRVTITADKSTSTAYMELSSLRSEDTAVYYCAIDSVSIYYFDYWGQGTLVTVSSASTKGPSVFPLAPCSRSTSESTAALGCLVKDYFPEPVTVSWNSGALTSGVHTFPAVLQSSGLYSLSSVVTVPSSSLGTKTYTCNVDHKPSNTKVDKRVESKYGPPCPPCPAPEFLGGPSVFLFPPKPKDTLMISRTPEVTCVVVDVSQEDPEVQFNWYVDGVEVHNAKTKPREEQFNSTYRVVSVLTVLHQDWLNGKEYKCKVSNKGLPSSIEKTISKAKGQPREPQVYTLPPCQEEMTKNQVSLWCLVKGFYPSDIAVEWESNGQPENNYKTTPPVLDSDGSFFLYSRLTVDKSRWQEGNVFSCSVMHEALHNHYTQKSLSLSLG
heavy 2: EVQLVESGGGLVQPGRSLRLSCAASGFTFNDYAMHWVRQAPGKGLEWVSTISWNSGSIGYADSVKGRFTISRDNAKKSLYLQMNSLRAEDTALYYCAKDIQYGNYYYGMDVWGQGTTVTVLEDLKNVFPPEVAVFEPSEAEISHTQKATLVCLATGFYPDHVELSWWVNGKEVHSGVCTDPQPLKEQPALQDSRYALSSRLRVSATFWQNPRNHFRCQVQFYGLSENDEWTQDRAKPVTQIVSAEAWGRYGPPCPPCPAPEFLGGPSVFLFPPKPKDTLMISRTPEVTCVVVDVSQEDPEVQFNWYVDGVEVHNAKTKPREEQFNSTYRVVSVLTVLHQDWLNGKEYKCKVSNKGLPSSIEKTISKAKGQPREPQVCTLPPSQEEMTKNQVSLSCAVKGFYPSDIAVEWESNGQPENNYKTTPPVLDSDGSFFLVSRLTVDKSRWQEGNVFSCSVMHEALHNHYTQKSLSLSLG
light 1: not shown
light 2: EIVLTQSPATLSLSPGERATLSCRASQSVSSYLAWYQQKPGQAPRLLIYDASNRATGIPARFSGSGSGTDFTLTISSLEPEDFAVYYCQQRSNWPITFGQGTRLEIKPDIQNPDPAVYQLRDSKSSDKSVCLFTDFDSQTQVSQSKDSDVYITDKCVLDMRSMDFKSNSAVAWSQKSDFACANAFQNSIIPEDTFFPSPESS
notes: Human IgG4 with S228P, knobs-into-holes; WuXiBody format, in which one arm carries TCR constant domains; also called W3278 BsAb; WBP3278 BsAb
B6: Anti-CD20. IgG4 (U2) (antibody, V domains shown)
VH: QVQLQQPGAELVKPGASVKMSCKASGYTFTSYNMHWVKQTPGRGLEWIGAIYPGNGDTSYNQKFKGKATLTADKSSSTAYMQLSSLTSEDSAVYYCARSTYYGGDWYFNVWGAGTTVTVSA
VL: QIVLSQSPAILSASPGEKVTMTCRASSSVSYIHWFQQKPGSSPKPWIYATSNLASGVPVRFSGSGSGTSYSLTISRVEAEDAATYYCQQWTSNPPTFGGGTKLEIK
notes: Tested as IgG4; also called parental anti-CD20 antibody U2

For the first assay, the target named is T1, CD3 on Jurkat cells (CD3+/CD20- cells) (human, UniProt P07766 23-207; P04234 22-171; P09693 23-182).
T1 construct: whole, on cells; also called Jurkat 2B8
T1 sequence (P07766 23-207, chain 1 of 3): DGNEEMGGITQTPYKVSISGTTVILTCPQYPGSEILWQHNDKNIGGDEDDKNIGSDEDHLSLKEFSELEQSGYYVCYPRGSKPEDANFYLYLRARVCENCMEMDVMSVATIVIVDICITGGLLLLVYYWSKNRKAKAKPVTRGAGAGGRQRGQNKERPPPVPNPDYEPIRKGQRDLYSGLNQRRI
T1 sequence (P04234 22-171, chain 2 of 3): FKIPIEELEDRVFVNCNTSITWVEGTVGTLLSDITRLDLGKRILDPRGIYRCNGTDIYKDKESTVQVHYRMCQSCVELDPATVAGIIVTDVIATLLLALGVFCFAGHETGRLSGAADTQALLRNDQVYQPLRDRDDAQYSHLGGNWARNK
T1 sequence (P09693 23-182, chain 3 of 3): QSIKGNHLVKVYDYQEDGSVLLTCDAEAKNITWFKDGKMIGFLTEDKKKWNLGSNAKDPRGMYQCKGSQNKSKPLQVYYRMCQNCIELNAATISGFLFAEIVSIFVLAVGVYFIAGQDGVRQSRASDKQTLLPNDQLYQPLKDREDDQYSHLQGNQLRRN
Nature of the assay: flow cytometry on Jurkat 2B8 cells (CD3+/CD20-). The procedure:
(§1) After incubation, the cells were washed twice with cold 1% BSA/1×PBS. […] After being washed twice, the geometric mean fluorescence (MFI) of the stained cells was measured using a FACS Canto II […] (BD Biosciences). Wells containing no antibody or containing only fluorescent secondary antibody were used to establish background fluorescence. The EC50 values for cell binding were determined using GraphPad Prism 5 software (GraphPad Software, La Jolla, Calif.); each value was calculated by four-parameter non-linear regression analysis.
On the technique in general: A flow cytometer gives signals particle by particle.
For B1, a half-maximal response (EC50) required 26.6 nM and the “TOP MFI” value is 536 MFI.
B2: the EC50 came out at 17.3 nM and the “TOP MFI” value was 7360 MFI.
The corresponding values for B3 are 33 nM and 3210 MFI.
The corresponding values for B4 are 43.7 nM and 3800 MFI.
As to B5, a half-maximal effect (EC50) was put at 129 nM and the “TOP MFI” value was 3880 MFI.

Another assay has as its target T2, CD20 on Raji cells (CD20+/CD3- cells) (human, UniProt P11836 1-297).
T2 construct: whole, on cells; Raji, Ramos and NAMALWA in the killing assays; also called Ramos; NAMALWA
T2 sequence (looked up): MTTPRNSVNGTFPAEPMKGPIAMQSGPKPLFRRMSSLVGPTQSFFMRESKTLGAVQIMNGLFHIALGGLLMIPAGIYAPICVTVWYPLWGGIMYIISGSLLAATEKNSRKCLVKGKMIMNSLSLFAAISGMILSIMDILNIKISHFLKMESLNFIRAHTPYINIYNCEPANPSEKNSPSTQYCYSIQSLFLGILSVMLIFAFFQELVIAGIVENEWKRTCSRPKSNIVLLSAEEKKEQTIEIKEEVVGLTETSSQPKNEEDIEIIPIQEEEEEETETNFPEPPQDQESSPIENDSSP
Nature of the assay: flow cytometry on Raji cells (CD20+/CD3-). The procedure: as §1
Take B1: the EC50 came out at 1.3 nM and the “TOP MFI” value stood at 55400 MFI.
For B2 the same measures were 85.3 nM and 64900 MFI.
Turning to B6, the half-maximal effective concentration (EC50) amounted to 11.4 nM and the “TOP MFI” value was found to be 53500 MFI.
As for B5, the EC50 was 13.2 nM and the “TOP MFI” value amounted to 68500 MFI.

For orientation: EC50 means the concentration at which the effect is half-maximal.
